Results on 1 protein are retold here after paper PMC6093294.

What all share (experiment): purified protein
Substrate in data set [1]: CCCCCCCCCCCCCCCC(=O)SCCNC(=O)CCNC(=O)[C@H](O)C(C)(C)COP(=O)(O)OP(=O)(O)OC[C@H]1O[C@@H](n2cnc3c(N)ncnc32)[C@H](O)[C@@H]1OP(=O)(O)O
As to conditions: 60 mM tryptamine, 300 mM Tris pH 8.0, 150 μM DTNB, 22°C.

Substrate in data set [2]: NCCc1ccc(O)cc1
It is filed as biochemical, Bombyx mori. As to conditions: 100 μM oleoyl-CoA, 300 mM Tris pH 8.0, 150 μM DTNB, 22°C.

Substrate in data set [3]: NC[C@H](O)c1ccc(O)cc1
The class given is biochemical, Bombyx mori. The note with it: 100 μM oleoyl-CoA, 300 mM Tris pH 8.0, 150 μM DTNB, 22°C.

Substrate in data set [4]: CCCCCCCC/C=C\CCCCCCCC(=O)SCCNC(=O)CCNC(=O)[C@H](O)C(C)(C)COP(=O)(O)OP(=O)(O)OC[C@H]1O[C@@H](n2cnc3c(N)ncnc32)[C@H](O)[C@@H]1OP(=O)(O)O
It is filed as biochemical, Bombyx mori. As to conditions: 60 mM tryptamine, 300 mM Tris pH 8.0, 150 μM DTNB, 22°C.

Substrate in data set [5]: CCCCCCCCCCCC(=O)SCCNC(=O)CCNC(=O)[C@H](O)C(C)(C)COP(=O)(O)OP(=O)(O)OC[C@H]1O[C@@H](n2cnc3c(N)ncnc32)[C@H](O)[C@@H]1OP(=O)(O)O
It is filed as biochemical, Bombyx mori. The note with it: 60 mM tryptamine, 300 mM Tris pH 8.0, 150 μM DTNB, 22°C.

Substrate in data set [6]: CCCCCCCCCCCCCC(=O)SCCNC(=O)CCNC(=O)[C@H](O)C(C)(C)COP(=O)(O)OP(=O)(O)OC[C@H]1O[C@@H](n2cnc3c(N)ncnc32)[C@H](O)[C@@H]1OP(=O)(O)O
It is filed as biochemical, Bombyx mori. The note with it: 60 mM tryptamine, 300 mM Tris pH 8.0, 150 μM DTNB, 22°C.

Substrate in data set [7]: NCCc1c[nH]c2ccccc12
It is filed as biochemical, Bombyx mori. As to conditions: 100 μM oleoyl-CoA, 300 mM Tris pH 8.0, 150 μM DTNB, 22°C.

Substrate in data set [8]: CCCCC/C=C\C/C=C\C/C=C\C/C=C\CCCC(=O)SCCNC(=O)CCNC(=O)[C@H](O)C(C)(C)COP(=O)(O)OP(=O)(O)OC[C@H]1O[C@@H](n2cnc3c(N)ncnc32)[C@H](O)[C@@H]1OP(=O)(O)O
It is filed as biochemical, Bombyx mori. As to conditions: 60 mM tryptamine, 300 mM Tris pH 8.0, 150 μM DTNB, 22°C.

B1: Bm-iAANAT (insect arylalkylamine N-acyltransferase from Bombyx mori) (Bombyx mori) (protein)
chain: MAVTSTRGIVNLKEKGHFERENARVEKYTLGDELPAQLSSLEIRPRKMSVPAYTIQRLTYNDRDLVLKFLRRFFFRDEPMNLAVNLLETPESRCTELDDYAAATLSDGVSVAAVDENGDYVGVIINGIVRREEVDYTDKSEDCPNPKFRRILKVLGHLDREARIWDKLPETCDSVLEIRIASTHSSWRGRGLMRVLCEEAERLAKAMGAGALRMDTTSAFSAAAAERLNYKMAFGVRYADLPYAPQPEAPHLEARVYIKEL
The term Km denotes the concentration of substrate that gives half-maximal velocity. The kcat is the maximal rate divided by the concentration of active sites. A word on the kcat/Km: it is the second-order rate constant that governs catalysis at low substrate concentration. For B1, the Michaelis constant (Km) in “purified protein [1]” was 1.1 ± 0.30 µM; in the data set “purified protein [2]” it was 84 ± 12 mM; in “purified protein [3]” it was 65 ± 16 mM; in the data set “purified protein [4]”, 1.7 ± 0.51 µM; in “purified protein [5]”, 0.97 ± 0.12 µM; in “purified protein [6]” it was 0.92 ± 0.20 µM. Besides, the figures for the Km in “purified protein [7]” and in the data set “purified protein [8]” were 7.0 ± 0.5 mM and 1.2 ± 0.67 µM, respectively. In addition, the turnover number (kcat) was determined as 0.51 s⁻¹ in “purified protein [1]”; 2.7 ± 0.19 s⁻¹ in “purified protein [2]”; 0.31 ± 0.04 s⁻¹ in the data set “purified protein [3]”; 0.42 ± 0.02 s⁻¹ in “purified protein [4]”; 0.66 ± 0.01 s⁻¹ in “purified protein [6]”; 0.72 ± 0.01 s⁻¹ in “purified protein [7]”. In addition, the kcat in the data set “purified protein [8]” was 0.27 ± 0.02 s⁻¹. Moreover, the specificity constant (kcat/Km) stood at 490000 M⁻¹ s⁻¹ in the data set “purified protein [1]”; 32 ± 5.3 M⁻¹ s⁻¹ in “purified protein [2]”; 4.7 ± 1.2 M⁻¹ s⁻¹ in the data set “purified protein [3]”; 240000 ± 70000 M⁻¹ s⁻¹ in the data set “purified protein [4]”; 720000 ± 150000 M⁻¹ s⁻¹ in “purified protein [6]”; 100 ± 7 M⁻¹ s⁻¹ in the data set “purified protein [7]”. Also, the kcat/Km in the data set “purified protein [8]” was determined as 240000 ± 130000 M⁻¹ s⁻¹.
